Data on 8 molecules can be found in patent publication US20040014209A1, “Compositions and methods for modulating cell differentiation” (priority 2002, published 2004).

The target of one data set is mWnt-3a (UniProt P27467). Nature of the data set: cell-based or functional assay.
Another data set relates to DMZ explants. The data set is described as follows: Wnt cDNA overexpression in DMZ explants, Nkx2.5 and TnIc by in situ hybridization. The following applies: plasmid cDNA injection into dorsal blastomeres; for Incidence of explants expressing Nkx2.5: stage 23; for Incidence of explants expressing TnIc: stage 30. The class given is cell-based, Xenopus. An excerpt:
If the normal function of Wnt antagonism in vivo is to induce cardiogenic mesoderm, then overexpression of Wnt proteins should block cardiogenesis in dorsal mesoderm. Four Wnt genes are known to be expressed during gastrulation: Wnt3A, Wnt5A, Wnt8, and Wnt11. Expression of Wnt8 is normally excluded from the organizer region, whereas Wnt 3A and Wnt11 are expressed dorsally and Wnt5A is found diffusely throughout the ectoderm (Christian and Moon 1993; Ku and Melton 1993; Moon et al. 1993; Du et al. 1995; McGrew et al. 1997). We injected Wnt cDNAs into the two dorsal blastomeres of a four-cell embryo and dissected DMZ explants encompassing the organizer and heart primordia at stage 10 (FIG. 10A). Plasmid injections were performed to avoid perturbation of Nieuwkoop center activity that can occur on expression of certain Wnts before the midblastula transition (Smith and Harland 1991; Sokol et al. 1991). Explants were cultured to either stage 23 or stage 30, at which time they were examined for the expression of Nkx2.5 or TnIc.
(§1) Marginal zone explants were dissected at stage 10. Those explants to be examined by RT-PCR for expression of heart field marker- and heart muscle-specific genes were cultured until sibling embryos were stage 30. In situ hybridization was performed on explants cultured to the equivalent of stage 23 or stage 30. Explants to be scored for formation of beating hearts were maintained until the equivalent of stage 41.
(§2) mRNA was transcribed from pSP35-chd, pSP64-ngn, pCS2-DKK1, pCS2-Crescent, pCS2-GSK3, pCS2-WIF, pCS2-dnXwnt8, pCS2-szl, and pXT7-FrzA using the SP6 and T7 mMessage mMachine kits (Ambion). All cDNAs used encode Xenopus proteins except those for Wnt1 and crescent, which encode chick isoforms. The Xenopus form of crescent was identified while this manuscript was in preparation (Pfeffer et al. 1997; Pera and De Robertis 2000; Shibata et al. 2000) and functions identically to the chick isoform in our assays. Xenopus and chick Crescent share 88% amino acid positional identity within the cysteine-rich domain. Injections were performed in 3% Ficoll in 1×MMR. Embryos were injected equatorially into the two ventral or two dorsal blastomeres at the four-cell stage to target expression to the ventral or dorsal marginal zone. The amount of mRNA injected is given in the text. For plasmid cDNA injections, 75 pg of pCS2-Xwnt3A, pCS2-Xwnt5A, and pCSKA-Xwnt8 and 100 pg of pCS2-cWnt11 supercoiled plasmid constructs were injected.
In situ hybridization was performed according to the protocol of Harland (1991). Digoxygenin-labeled probes were transcribed from the following linearized plasmids: pGEM-XNkx2.5 (XbaI, T7 polymerase) and pBS-TnIc (NotI, T7).

Data set [1] has as its system ventral marginal zone (VMZ) explants. Nature of the data set: VMZ explant assay: mRNA injection, cardiac-specific gene expression and beating. It is filed as cell-based, Xenopus laevis. The protocol:
In a modification of this assay (FIG. 6A), we targeted mRNAs encoding Wnt and BMP antagonists to VMZ tissue by microinjection into the equatorial region of both ventral blastomeres of four-cell stage embryos. VMZ explants were isolated at stage 10, cultured, and assayed at stage 30 by RT-PCR for cardiac-specific gene expression.
Embryos were fertilized in vitro, dejellied in 2% cysteine-HCl (pH 7.8), and maintained in 0.1×MMR. Explant dissections were performed in 0.75×MMR using an eyelash knife. Embryos were staged according to Nieuwkoop and Faber (1994).
as §1, §2
RT-PCR was performed as described in Schneider and Mercola (1999). Twenty-five cycles were performed at an annealing temperature of 55° C., unless otherwise noted. Expression of EF1α was used as a positive control for the reverse transcriptase reaction. The following additional primers were used: XNkx2.5+, […] (SEQ ID NO: 7); XNkx2.5−, […] (SEQ ID NO: 8); M. actin+, […] (SEQ ID NO: 9); M. actin−, […] (SEQ ID NO: 10) (22 cycles); TnIc+, […] (SEQ ID NO: 11); TnIc−, […] (SEQ ID NO: 12); MHCα+, […] GTTCCG (SEQ ID NO: 13); MHCα−, […] (SEQ ID NO: 14); Tbx5+, […] (SEQ ID NO: 15); Tbx5−, […] (SEQ ID NO: 16) (27 cycles); XNkx2.10+, […] (SEQ ID NO: 17); and XNkx2.10−, […] (SEQ ID NO: 18) (59° C., 28 cycles).
A secreted version of the C-terminal fragment was made by fusing the secretory region of human Dkk1 to the C-terminal region cysteine rich region, as described above. This protein is referred to as “C1.” Briefly, the HindIII-Asp718 C-terminal fragment of human Dkk1 (SEQ ID NO: 1) was ligated to the sequence encoding the secretory signal of Dkk1 and cloned into a vector permitting in vitro transcription. As a control, full length Dkk1 was used. RNA was prepared in vitro from the vector as described above. The RNA encoded a polypeptide comprising amino acids 158-266 of SEQ ID NO: 2. The RNA was then injected into noncardiogenic frog embryonic mesoderm, as described above and in Schneider and Mercola (2001) Genes & Dev. 15:304.

The subject of another data set is APMEE explants. The data set is described as follows: APMEE explant culture, cardiac gene expression by RT-PCR. It is filed as cell-based, chick. Particulars: noggin administration to APMEE explants.
The subject of data set [2] is murine embryonic stem (ES) cells. Nature of the data set: Cardiac differentiation of ES cells. The class given is cell-based. The protocol: Full length human Dkk1 (SEQ ID NO: 2) was expressed in host cells and incubated with murine embryonic stem (ES) cells. ES cells were lightly trypsinized, re-plated on petri plastic and cultured for 4 days. During this time, the cells cluster and the mesodermal marker brachyury becomes expressed. Cells were then trypsinized lightly and transferred to gelatin-coated plates with or without recombinant Dkk1 and cultured at 37° C. Cardiomyocyte differentiation of ES cells in the absence of Dkk1 occurs at 13-14 days. ES cells incubated with Dkk1 differentiated into cardiomyocytes at 8-9 days (see FIG. 21).
Cells were grown on gelatin-coated plates without LIF for 2d, then allowed to aggregate on petri dish plastic for 2d, aggregates were then dispersed by mild trypsinization and plated onto gelatin-coated plates with rDkk1- or rC1-conditioned medium or control conditioned medium lacking rDkk for duration of experiment. Presence of beating foci was scored on days 8-14. Instances of beating foci presented as “beating”. Precocious beating sometimes occurred at day 8.

Another data set relates to stage 7 chick embryos. The data set is described as follows: Cell pellet implantation into stage 7 chick embryos in New culture (heart looping, DiI tracing, in situ hybridization). It is filed as in vivo.

Bounds are passed on as bounds.

Sequence of mWnt-3a (P27467 19-352 limits assumed): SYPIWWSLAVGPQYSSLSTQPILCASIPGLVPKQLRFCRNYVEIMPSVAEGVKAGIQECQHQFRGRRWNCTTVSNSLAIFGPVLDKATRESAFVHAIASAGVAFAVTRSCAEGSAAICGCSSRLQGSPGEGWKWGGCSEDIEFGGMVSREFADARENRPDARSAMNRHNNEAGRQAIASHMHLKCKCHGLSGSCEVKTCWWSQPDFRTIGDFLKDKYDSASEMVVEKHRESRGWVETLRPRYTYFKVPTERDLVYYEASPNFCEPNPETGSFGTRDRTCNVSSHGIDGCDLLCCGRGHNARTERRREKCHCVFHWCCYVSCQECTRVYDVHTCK

Take chick Crescent: the Wnt-induced expression of siamois in Xenopus animal caps (RT-PCR) with mWnt-3a stood at 3 fold.

Regarding Wnt3A, in the data set with DMZ explants, the “Incidence of explants expressing Nkx2.5” value stood at 45.6% and the “Incidence of explants expressing TnIc” value came out at 24.2%.

B1: Noggin: BMP antagonist; noggin-conditioned medium from CHO cells or injected noggin mRNA (protein, UniProt P49011 20-222, looked up)
Noggin: RIDQGGCQHYLHIRPAPSENLPLVDLIEHPDPIYDPKEKDLNETLLRTLMVGHFDPNFMATILPEERLGVEDLGELDLLLRQKPSGAMPAEIKGLEFYEGLQSKKHRLSKKLRRKLQMWLWSQTFCPVLYTWNDLGTRFWPRYVKVGSCYSKRSCSVPEGMVCKAAKSMHLTILRWRCQRRVQQKCAWITIQYPVISECKCSC
Regarding B1, the “mRNA dose inducing muscle actin” value in data set [1] (VMZ explants) is listed as no less than 5 pg. For the same molecule, the “mRNA dose at which explants were unable to survive” value in data set [1] (extreme morphogenetic movements of VMZ explants) is on record as greater than 50 pg. Moreover, in data set [1] (mRNA injected ventrally at four-cell stage, VMZ explants, RT-PCR stage 30), the “Heart-specific gene expression (TnIc, MHCα)” value is reported as “did not induce specific markers of cardiogenesis”. The “APMEE explants in which cardiogenesis was blocked (number of explants)” value in the data set with APMEE explants was 10 out of 14.

B2: Wnt5A: expressed from injected pCS2-Xwnt5A plasmid (protein, UniProt P31286 41-380, looked up)
Protein Wnt-5a: VVESSSWWSLGMNPVQMPEVYIIGAQPLCSQLSGLSQGQKKLCQLYQDHMQFIGDGAKTGIKECQYQFRHRRWNCSTVDNTSVFGRVMQIGSRETAFTYAISAAGVVNAVSRACREGELSTCGCSRAARPKDLPRDWLWGGCGDNLDYGYRFAKEFVDAREREKIHQKGSYESSRIMMNLHNNEAGRRAVSTLADVACKCHGVSGSCSLKTCWLQLADFRKVGDHLKEKYDSAGAMKLNTRGKLVQVNNKFNSPTMNDLVYIDPSPDYCVHNESTGSLGTQGRLCNKTSEGMDGCELMCCGRGYDQFKTVQTERCHCKFHWCCYVKCKKCTEVVDQFACK
Turning to B2, in the data set on DMZ explants, the “Incidence of explants expressing Nkx2.5” value is 97.5% and the “Incidence of explants expressing TnIc” value is on record as 85.9%.

B3: Wnt11: expressed from injected pCS2-cWnt11 plasmid (protein, UniProt P49339 25-354, looked up)
Protein Wnt-11: IKWIALSKTPSSLALNQTQHCKQLEGLVVSQVQLCRSNLELMQTIIQAAREVIKTCRKTFSDMRWNCSSIELAPNYLLDLERGTRESAFVYALSAAAISHTIARACTTGDLPGCSCGPIPGETPGPGYRWGGCADNLNYGLIMGSKFSDAPMKMKKSGSQANKLMHLHNSEVGRQVLKASLEMKCKCHGVSGSCSIKTCWKGLQELRDIALDLKNKYLSATKVVHRPMGTRKYLVPKDIDIRPVKETELIYLQSSPDFCMKNEKVGSHGTQDRQCNKTSNGSDSCDLMCCGRGYNPYMDKVVERCHCKYHWCCYVTCKKCERTVERYVCK
As for B3, in the data set with DMZ explants, the “Incidence of explants expressing Nkx2.5” value is reported as 94.1% and the “Incidence of explants expressing TnIc” value came to 83.1%.

B4: Dkk1: Full length human Dkk1 (SEQ ID NO: 2), recombinant, expressed in host cells (protein, UniProt O94907 1-266, looked up)
chain: MMALGAAGATRVFVAMVAAALGGHPLLGVSATLNSVLNSNAIKNLPPPLGGAAGHPGSAVSAAPGILYPGGNKYQTIDNYQPYPCAEDEECGTDEYCASPTRGGDAGVQICLACRKRRKRCMRHAMCCPGNYCKNGICVSSDQNHFRGEIEETITESFGNDHSTLDGYSRRTTLSSKMYHTKGQEGSVCLRSSDCASGLCCARHFWSKICKPVLKEGQVCTKHRRKGSHGLEIFQRCYCGEGLSCRIQKDHHQASNSSRLHTCQRH
modifications: full-length
For B4, the “myosin light chain (MLC2a) mRNA” value in data set [2] (PCR, relative to ES cells not incubated with Dkk1) is on record as “elevated myosin light chain (MLC2a) mRNA”. For the same molecule, in data set [2] (by comparison with ES cells not incubated with Dkk1), the “Beating, Nkx2.5 and contractile protein expression” value was “early beating, an increased number of beating foci, an increased Nkx2.5 expression and increased contractile protein expression”. Further, in data set [2] (recombinant Dkk1, 13-14 days in the absence of Dkk1), the “Time to cardiomyocyte differentiation of ES cells” value was 8 to 9 days.

B5: BMP-4: BMP-4 expressed by implanted 293 cell pellets (protein, UniProt P12644 293-408, looked up)
Bone morphogenetic protein 4: SPKHHSQRARKKNKNCRRHSLYVDFSDVGWNDWIVAPPGYQAFYCHGDCPFPLADHLNSTNHAIVQTLVNSVNSSIPKACCVPTELSAISMLYLDEYDKVVLKNYQEMVVEGCGCR
For the molecule B5, the “Embryos with reversed heart looping” value with stage 7 chick embryos (293 cell pellets in left anterior paraxial mesoderm, stage 7, n=25) was 20%. Further, the vMHC expression entry in the data set with stage 7 chick embryos (cell pellets in presumptive anterior paraxial mesoderm, in situ hybridization) is given as “failed to affect subsequent vMHC expression”.

B6: Wnt8: expressed from injected pCSKA-Xwnt8 plasmid (protein)
chain: AWSVNNFLMTGPKAYLTYSASVAVGAQNGIEECKYQFAWERWNCPESTLQLATHNGLRSATRETSFVHAISSAGVMYTLTRNCSMGDFDNCGCDDSRNGRIGGRGWVWGGCSDNAEFGERISKLFVDGLETGQDARALMNLHNNEAGRLAVKETMKRTCKCHGISGSCSIQTCWLQLAEFRDIGNHLKIKHDQALKLEMDKRKMRSGNSADNRGAIADAFSSVAGSELIFLEDSPDYCLKNISLGLQGTEGRECLQSGKNLSQWERRSCKRLCTDCGLRVEEKKTEIISSCNCKFHWCCTVKCEQCKQVVIKHFCARRERDSNMLNTKRKNRGHRR
With B6, in the data set with DMZ explants, the “Incidence of explants expressing Nkx2.5” value came out at 19.9% and the “Incidence of explants expressing TnIc” value is given as 41.1%.
